{"source": "paper PMC9684555", "about": "“Structure- and computational-aided engineering of an oxidase to produce isoeugenol from a lignin-derived compound” (Nature Communications, 2022)", "proteins": {"B1": {"name": "EUGO (eugenol oxidase) (Rhodococcus jostii RHA1) (protein)", "chain": "MTRTLPPGVSDERFDAALQRFRDVVGDKWVLSTADELEAFRDPYPVGAAEANLPSAVVSPESTEQVQDIVRIANEYGIPLSPVSTGKNNGYGGAAPRLSGSVIVKTGERMNRILEVNEKYGYALLEPGVTYFDLYEYLQSHDSGLMLDCPDLGWGSVVGNTLDRGVGYTPYGDHFMWQTGLEVVLPQGEVMRTGMGALPGSDAWQLFPYGFGPFPDGMFTQSNLGIVTKMGIALMQRPPASQSFLITFDKEEDLEQIVDIMLPLRINMAPLQNVPVLRNIFMDAAAVSKRTEWFDGDGPMPAEAIERMKKDLDLGFWNFYGTLYGPPPLIEMYYGMIKEAFGKIPGARFFTHEERDDRGGHVLQDRHKINNGIPSLDELQLLDWVPNGGHIGFSPVSAPDGREAMKQFEMVRNRANEYNKDYAAQFIIGLREMHHVCLFIYDTAIPEAREEILQMTKVLVREAAEAGYGEYRTHNALMDDVMATFNWGDGALLKFHEKIKDALDPNGIIAPGKSGIWSQRFRGQNL", "notes": "full length, 526 residues, C-terminal His6 tag (pBAD-EUGO-His6x), E. coli NEB10beta; covalent FAD; homodimer; mutants for crystals from His-SUMO fusion, tag cleaved"}}, "key": {"purified protein [1]": {"substrate": "CCCc1ccc(O)c(OC)c1", "test": "purified protein", "assay_type": "biochemical, Rhodococcus jostii", "details": "50 mM KPi pH 7.5, 10% v/v DMSO, 10 µM to 1 mM substrate, O2 co-substrate, 1.0 µM enzyme"}, "purified protein [2]": {"substrate": "COc1cc(CO)ccc1O", "test": "purified protein", "assay_type": "biochemical, Rhodococcus jostii", "details": "50 mM KPi pH 7.5, O2 co-substrate, 0.05 µM enzyme"}}}
{"protein": "B1", "values": [{"measurement": "Km", "setting": "purified protein [1]", "value": "3.3 ± 0.9", "unit": "µM"}, {"measurement": "kcat", "setting": "purified protein [1]", "value": "0.008 ± 0.0003", "unit": "s⁻¹"}, {"measurement": "Km", "setting": "purified protein [2]", "value": "43.0 ± 2.2", "unit": "µM"}, {"measurement": "kcat", "setting": "purified protein [2]", "value": "6.8 ± 0.2", "unit": "s⁻¹"}]}
